Substitutions are numbered along the chain they refer to. Names and notes keep the numbering of the source. Read-outs that look alike come from different tables or passages of the source.
T1: extracellular domain (ECD) of human TIGIT (human, UniProt Q495A1 22-141, biotinylated (site not stated))
T1 chain: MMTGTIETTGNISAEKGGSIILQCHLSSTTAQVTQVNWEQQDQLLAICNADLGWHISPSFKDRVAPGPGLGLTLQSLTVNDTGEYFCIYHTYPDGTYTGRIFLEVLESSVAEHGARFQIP

T2: extracellular domain (ECD) of mouse TIGIT (mouse, UniProt P86176 29-148, biotinylated (site not stated))
T2 chain: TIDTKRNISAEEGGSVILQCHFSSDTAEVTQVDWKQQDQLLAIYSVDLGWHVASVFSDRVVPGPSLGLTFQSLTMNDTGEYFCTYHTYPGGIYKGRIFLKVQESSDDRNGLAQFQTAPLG

B1: CS19ME3-23 (antibody, V domains shown)
VH: EVQLLESGGGLVQPGGSLRLSCAASGFTFSSYAMHWVRQAPGKGLEWVAVISYDGSNKYYADSVKGRFTISRDNSKNTLYLQMNSLRAEDTAVYYCATLEGGGRYYDFWSADYWGQGTLVTVSS
VL: QSALTQPRSVSGSPGQSVTISCTGTSSDVGGYNFVSWYQQHPGKAPKLLIYAVSKRPSGVPDRFSGSKSGNTASLTISGLQAEDEADYYCSSYSSESTRVVFGGGTKLTVL
B2: CS19ME3-30-N (antibody, V domains shown)
VH: B1 VH with E1Q, L5V, L11V, G16R
VL: B1 VL with K55N
B3: T4M (antibody, V domains shown)
VH: QVQLQQWGAGLLKPSETLSLTCAVYGGSFNDYYWTWIRQAPGKGLEWIGEITHSGSADYNPSLKSRVTISVDTSKNQFSLKLRSVTAADTAVYYCARGLKLFRWKKTTVTTFPPYYYGMDVWGQGTTVTVSS
VL: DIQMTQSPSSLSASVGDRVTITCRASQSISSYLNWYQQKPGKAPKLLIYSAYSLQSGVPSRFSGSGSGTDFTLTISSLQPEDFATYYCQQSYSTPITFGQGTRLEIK

Key:
[1] = biological target: T1, extracellular domain (ECD) of human …; experiment: SPR (Biacore T200, multi-cycle)
[2] = biological target: T2, extracellular domain (ECD) of mouse …; experiment: SPR (Biacore T200, multi-cycle)
[3] = biological target: T1, extracellular domain (ECD) of human …; experiment: competition ELISA; competition with hCD155
[4] = biological target: T2, extracellular domain (ECD) of mouse …; experiment: competition ELISA; competition with mCD155
[5] = biological target: T1, extracellular domain (ECD) of human …; experiment: competition ELISA; competition with hCD112
[6] = biological target: T1, extracellular domain (ECD) of human …; experiment: SPR (Biacore T200, multi-cycle)
[7] = biological target: T2, extracellular domain (ECD) of mouse …; experiment: SPR (Biacore T200, multi-cycle)

Kd [1] | Kd [2] | IC50 [3] | IC50 [4] | IC50 [5] | Kd [6] | Kd [7] | Binder
3.49 nM | 21.6 nM | – | – | – | – | – | B1
3.36 nM | 2.85 nM | 1.18 µg/mL | 0.67 µg/mL | 0.9 µg/mL | – | – | B2
– | – | – | – | – | 8.75 nM | 2.74 nM | B3
